Measured values reported in patent US20100166808A1, “Method of Facilitating Intracellular Uptake or Transcellular Transport of Cargo Using Nanocarriers Containing Optimal Surface Densities of Integrin-Specific Ligands” (priority 2008, published 2010).

Assays:
Test in all cases: Selectivity for human integrin receptors: phage binding to plate-coated purified integrin
Details in all cases: FIG. 1; purified integrin coated at 1 μg/mL; phage-displayed ligand, detection at 450 nm
[1] = target: T1, human α5β1 integrin receptor (Homo sapiens, UniProt P05556+P08648)
T1 construct: purchased Chemicon, Temecula, Calif
Method: (§1) Nunc MaxiSorp™ 96-well plates are coated with 200 μL of purified human α3β1, α5β1, and αvβ5 integrins (Chemicon, Temecula, Calif.) at 1 μg/mL in Tween 20™/PBS buffer, pH 7.5 (4° C.). After blocking for two hours with 5% (w/v) BSA (bovine serum albumin) in PBS, pH 7.5, phage samples are incubated with integrins in PBS, pH 7.5, supplemented with 2.5% (w/v) non-fat dry milk. After one hour of incubation, unbound phages are removed and the wells are washed five times with Ca^2+- and Mg^2+-containing PBS, pH 7.5.
(§2) Bound phages are quantified spectrophotometrically at λ=450 nm using monoclonal mouse T7 tail fiber antibody (1:5,000) followed by goat anti-mouse IgG horseradish peroxidase:conjugate (1:5,000) and TMB (3,3′,5,5′-tetramethyl-benzidine) as substrate.

α3β1 integrin receptor = target: T2, α3β1 integrin receptor (Homo sapiens, UniProt P05556+P26006)
T2 construct: purchased Chemicon, Temecula, Calif
Method: as §1, §2

αvβ3 integrin receptor = system: αvβ3 integrin receptor

T1 sequence (P08648 42-894 limits assumed): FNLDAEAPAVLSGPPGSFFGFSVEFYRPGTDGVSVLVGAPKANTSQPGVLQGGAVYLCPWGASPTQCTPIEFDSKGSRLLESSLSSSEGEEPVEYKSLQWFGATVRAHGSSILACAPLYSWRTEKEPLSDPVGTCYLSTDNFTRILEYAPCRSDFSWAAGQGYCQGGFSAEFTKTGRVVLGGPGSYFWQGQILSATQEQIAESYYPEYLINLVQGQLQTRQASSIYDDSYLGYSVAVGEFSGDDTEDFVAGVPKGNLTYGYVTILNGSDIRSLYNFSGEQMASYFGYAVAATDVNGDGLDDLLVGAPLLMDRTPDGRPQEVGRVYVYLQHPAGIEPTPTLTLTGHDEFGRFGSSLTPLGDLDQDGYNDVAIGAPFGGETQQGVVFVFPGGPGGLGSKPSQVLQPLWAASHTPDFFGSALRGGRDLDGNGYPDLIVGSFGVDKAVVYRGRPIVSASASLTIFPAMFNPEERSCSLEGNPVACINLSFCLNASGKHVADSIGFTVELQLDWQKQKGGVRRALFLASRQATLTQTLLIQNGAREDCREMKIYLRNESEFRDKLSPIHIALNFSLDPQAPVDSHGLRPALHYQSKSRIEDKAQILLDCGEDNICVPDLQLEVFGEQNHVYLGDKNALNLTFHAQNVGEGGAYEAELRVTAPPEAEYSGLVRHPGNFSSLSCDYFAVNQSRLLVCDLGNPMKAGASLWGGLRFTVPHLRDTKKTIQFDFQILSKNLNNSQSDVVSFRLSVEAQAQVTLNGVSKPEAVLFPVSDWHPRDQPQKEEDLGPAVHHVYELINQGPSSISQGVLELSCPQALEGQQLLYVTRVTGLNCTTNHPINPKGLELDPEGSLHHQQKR
T1 sequence (P08648 895-1049 partner limits assumed): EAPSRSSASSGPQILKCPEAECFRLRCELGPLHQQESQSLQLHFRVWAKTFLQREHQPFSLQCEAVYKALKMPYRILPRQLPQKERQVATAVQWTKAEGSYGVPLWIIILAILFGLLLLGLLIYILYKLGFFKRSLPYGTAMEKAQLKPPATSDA
T1 sequence (P05556 21-798): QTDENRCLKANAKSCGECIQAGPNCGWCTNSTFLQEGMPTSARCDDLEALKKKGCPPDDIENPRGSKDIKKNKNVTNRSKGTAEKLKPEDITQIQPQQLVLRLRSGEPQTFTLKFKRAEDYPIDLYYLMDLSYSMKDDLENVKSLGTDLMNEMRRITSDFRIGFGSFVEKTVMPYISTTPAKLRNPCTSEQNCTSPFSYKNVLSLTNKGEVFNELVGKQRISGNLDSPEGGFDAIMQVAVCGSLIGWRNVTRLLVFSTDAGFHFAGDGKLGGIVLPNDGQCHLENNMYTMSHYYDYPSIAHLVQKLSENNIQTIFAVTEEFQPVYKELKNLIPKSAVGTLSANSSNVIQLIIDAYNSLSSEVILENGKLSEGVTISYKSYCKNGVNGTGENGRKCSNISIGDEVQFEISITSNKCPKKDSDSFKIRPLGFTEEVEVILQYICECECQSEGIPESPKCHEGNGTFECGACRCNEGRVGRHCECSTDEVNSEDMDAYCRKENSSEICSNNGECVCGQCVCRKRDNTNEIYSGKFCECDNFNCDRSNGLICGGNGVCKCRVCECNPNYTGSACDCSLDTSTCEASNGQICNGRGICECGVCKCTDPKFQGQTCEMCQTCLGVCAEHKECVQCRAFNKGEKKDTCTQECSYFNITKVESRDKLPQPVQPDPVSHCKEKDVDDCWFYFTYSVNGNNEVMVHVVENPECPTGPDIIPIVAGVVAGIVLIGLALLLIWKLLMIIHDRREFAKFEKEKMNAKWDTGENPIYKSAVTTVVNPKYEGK
T2 sequence (P26006 33-872 limits assumed): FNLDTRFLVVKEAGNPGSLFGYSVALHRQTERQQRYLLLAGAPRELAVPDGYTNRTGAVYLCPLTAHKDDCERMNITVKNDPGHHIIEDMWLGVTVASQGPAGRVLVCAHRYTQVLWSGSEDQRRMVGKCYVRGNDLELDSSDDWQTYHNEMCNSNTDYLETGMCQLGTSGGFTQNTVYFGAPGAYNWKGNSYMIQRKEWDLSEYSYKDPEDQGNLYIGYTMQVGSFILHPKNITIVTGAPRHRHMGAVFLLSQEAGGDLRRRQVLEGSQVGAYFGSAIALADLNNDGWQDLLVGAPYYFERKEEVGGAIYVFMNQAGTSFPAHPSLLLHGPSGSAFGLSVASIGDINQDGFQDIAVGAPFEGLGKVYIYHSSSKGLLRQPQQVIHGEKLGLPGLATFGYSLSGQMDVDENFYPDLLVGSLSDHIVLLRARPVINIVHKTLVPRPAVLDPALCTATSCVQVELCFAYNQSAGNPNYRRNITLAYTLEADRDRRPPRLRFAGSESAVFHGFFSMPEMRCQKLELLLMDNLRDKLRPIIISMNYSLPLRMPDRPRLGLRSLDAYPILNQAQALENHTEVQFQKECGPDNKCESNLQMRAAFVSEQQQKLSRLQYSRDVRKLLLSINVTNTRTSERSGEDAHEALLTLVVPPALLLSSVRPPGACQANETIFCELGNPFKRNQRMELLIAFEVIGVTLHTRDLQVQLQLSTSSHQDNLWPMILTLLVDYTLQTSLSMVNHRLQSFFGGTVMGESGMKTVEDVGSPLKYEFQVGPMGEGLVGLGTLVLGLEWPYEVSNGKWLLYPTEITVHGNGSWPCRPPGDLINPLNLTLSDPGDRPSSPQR
T2 sequence (P26006 873-1051 partner limits assumed): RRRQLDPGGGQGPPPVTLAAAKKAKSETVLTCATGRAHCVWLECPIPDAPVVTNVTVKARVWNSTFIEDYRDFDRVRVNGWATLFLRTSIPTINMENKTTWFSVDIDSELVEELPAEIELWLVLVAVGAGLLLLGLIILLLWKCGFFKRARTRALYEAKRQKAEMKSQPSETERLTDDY
T2 sequence (P05556 21-798): as the sequence (P05556 21-798) above

RYRGDLGRR [α5β1 integrin-specific ligand peptide]
binding to surface-immobilized human α5β1 integrin receptor [1]: binds most effectively
affinity for α3β1 integrin receptor (α3β1 integrin receptor): displays affinity
affinity for αvβ3 integrin receptor (αvβ3 integrin receptor): displays affinity
